Reference: paper PMC6266874

Experiments:
Assay in all cases: GST-WRKY pull-down of BIK1-HA from leaf extract
Conditions in all cases: reference: wild type BIK1; sites S89,T90
WRKY33 = WRKY33 (UniProt Q8S8P5)
WRKY50 = WRKY50 (UniProt Q8VWQ5)
WRKY57 = WRKY57 (UniProt Q9C983)

Measured: binding against the reference

BIK1 (Botrytis-induced kinase 1) (from UniProt O48814) S89A/T90A
stronger: all assays above
